Test results reported in article PMC12669755.

Molecular target: 3xFLAG::mScarlet::WAGO-4 (UniProt O62275)
Experiment: in vitro phase separation (condensate partitioning, confocal fluorescence microscopy)

- other: condensed / dilute phase mScarlet::WAGO-4 fluorescence ratio (second replicate, n = 36 ROIs, buffer-only negative control ratios in the same panel: WT 1.36, FG* 1.41, parent: 2.45): 2.09
- other: condensed / dilute phase mScarlet::WAGO-4 fluorescence ratio (single experiment, n = 32-36 ROIs, buffer-only negative control ratios in the same panel: WT 1.36, FG* 1.32, parent: 3.04): 2.53
Substance: minimal P granules (condensates of PGL-1, PGL-3, GLH-1 and GLH-4 with poly-A+ mRNA), WT GLH-1 and GLH-4 (from UniProt Q9TZQ3;G5EBV6;P34689;O76743) GLH-1(F→A); GLH-4(F→A)
